Key:
[1] = target: plasma-derived von Willebrand factor, highly purified in-house control preparation (human) (UniProt P04275); experiment: ELISA + SPR; VWF:FVIIIB, measured by an ELISA combined with a chromogenic assay (ECA) and by Biacore; the table does not say which gave the percent
[2] = target: recombinant von Willebrand factor, furin-matured (human) (UniProt P04275); experiment: as above

For factor VIII, P00451 20-2351, the VWF:FVIII binding capacity (%) [1] was 109% and the VWF:FVIII binding capacity (%) [2] was 108%.
